Patent US20100215655A1 (CHENGDU KANGHONG BIOTECHNOLOGIES, published 2010)

What was measured:
[1] = biological target: T1, recombinant VEGF (vascular endothelial cell growth factor) (UniProt P15692-4 27-191, limits assumed); assay: cell-based or functional assay
[2] = biological target: T1, recombinant VEGF (vascular endothelial …); assay: ELISA, VEGF coated on plate, anti-human Ig-HRP detection
Experimental: Affinities of the chimeric proteins to VEGF were determined by the VEGF binding assay in the present invention. Firstly, recombinant VEGF proteins (Chemicom) were coated in a 96-well ELISA plate, and non-specific protein binding sites of the plate were then blocked using 5% milk solution. Secondly, different concentrations of various chimeric proteins were added into each well, and incubated for 2 hours at 37° C. After washing, rabbit anti-human Ig-HRP (Sigma) was added into each well, and finally colorimetric enzyme substrates were added to the plate. The absorption OD readings were recorded with the use of an ELISA plate reader. A higher OD value indicated a stronger binding affinity of the chimeric proteins to VEGF.

T1 sequence (P15692 other isoform, or with tags, fused parts or gaps limits assumed): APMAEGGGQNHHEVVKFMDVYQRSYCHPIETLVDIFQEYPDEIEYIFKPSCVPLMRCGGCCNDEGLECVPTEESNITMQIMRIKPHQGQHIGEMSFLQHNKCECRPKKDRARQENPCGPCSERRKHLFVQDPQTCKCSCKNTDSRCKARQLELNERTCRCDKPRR

B1: FP6′ (FLTd2-KDRd3-FLTd4,5-Fc) (Fc fusion, human, not shown: a dimerising Fc or GST)
chain: PFVEMYSEIPEIIHMTEGRELVIPCRVTSPNITVTLKKFPLDTLIPDGKRIIWDSRKGFIISNATYKEIGLLTCEATVNGHLYKTNYLTHRQTVVLSPSHGIELSVGEKLVLNCTARTELNVGIDFNWEYPSSKHQHKKLVNRDLKTQSGSEMKKFLSTLTIDGVTRSDQGLYTCAASSGLMTKKNSTFVRVHEKFITVKHRKQQVLETVAGKRSYRLSMKVKAFPSPEVVWLKDGLPATEKSARYLTRGYSLIIKDVTEEDAGNYTILLSIKQSNVFKNLTATLIVNVKPQIYEKAVSSFPDPALYPLGSRQILTCTAYGIPQPTIKWFWHPCNHNHSEARCDFCSNNEESFILDADSNMGNRIESITQRMAIIEGKNKMASTLVVADSRISGIYICIASNKVGTVGRNISFYIT
notes: domain: 5th Ig-like domain of FLT-1; Expressed in 293 cells; also called PF6′
[1]
  IC50 of inhibition of VEGF-induced HUVEC cell growth: 5 to 8 ng/mL
[2]
  concentration at which binding was detectable: 1 µg/mL

B2: FP5′ (FLTd2-KDRd3,4,5-Fc) (Fc fusion, human, not shown: a dimerising Fc or GST)
chain: PFVEMYSEIPEIIHMTEGRELVIPCRVTSPNITVTLKKFPLDTLIPDGKRIIWDSRKGFIISNATYKEIGLLTCEATVNGHLYKTNYLTHRQTVVLSPSHGIELSVGEKLVLNCTARTELNVGIDFNWEYPSSKHQHKKLVNRDLKTQSGSEMKKFLSTLTIDGVTRSDQGLYTCAASSGLMTKKNSTFVRVHEKFVAFGSGMESLVEATVGERVRIPAKYLGYPPPEIKWYKNGIPLESNHTIKAGHVLTIMEVSERDTGNYTVILTNPIKSEKQSHVVSLVVYVPPQIGEKSLISPVDSYQYGTTQTLTCTVYAIPPPHHIHWYWQLEEECANEPSQAVSVTNPYPCEEWRSVEDFQGGNKIEVNKNQFALIEGKNKTVSTLVIQAANVSALYKCEAVNKVGRGERVISFHVT
notes: domain: 5th Ig-like domain of KDR; Expressed in 293 cells
[1]
  IC50 of inhibition of VEGF-induced HUVEC cell growth: 5 to 8 ng/mL
[2]
  concentration at which binding was detectable: 1 µg/mL

B3: FP4′ (FLTd2-KDRd3-FLTd4-Fc) (Fc fusion, not shown: a dimerising Fc or GST)
chain: PFVEMYSEIPEIIHMTEGRELVIPCRVTSPNITVTLKKFPLDTLIPDGKRIIWDSRKGFIISNATYKEIGLLTCEATVNGHLYKTNYLTHRQTVVLSPSHGIELSVGEKLVLNCTARTELNVGIDFNWEYPSSKHQHKKLVNRDLKTQSGSEMKKFLSTLTIDGVTRSDQGLYTCAASSGLMTKKNSTFVRVHEKFITVKHRKQQVLETVAGKRSYRLSMKVKAFPSPEVVWLKDGLPATEKSARYLTRGYSLIIKDVTEEDAGNYTILLSIKQSNVFKNLTATLIVNVKP
notes: Expressed in 293 cells
[1]
  IC50 of inhibition of VEGF-induced HUVEC cell growth: 5 to 8 ng/mL
[2]
  concentration at which binding was detectable: 1 µg/mL

B4: FP2′ (KDRd1-FLTd2-KDRd3-Fc) (Fc fusion, not shown: a dimerising Fc or GST)
chain: PRLSIQKDILTIKANTTLQITCRGQRDLDWLWPNNQSGSEQRVEVTECSDGLFCKTLTIPKVIGNDTGAYKCFYRETDLASVIYVYPFVEMYSEIPEIIHMTEGRELVIPCRVTSPNITVTLKKFPLDTLIPDGKRIIWDSRKGFIISNATYKEIGLLTCEATVNGHLYKTNYLTHRQTVVLSPSHGIELSVGEKLVLNCTARTELNVGIDFNWEYPSSKHQHKKLVNRDLKTQSGSEMKKFLSTLTIDGVTRSDQGLYTCAASSGLMTKKNSTFVRVHEK
notes: Expressed in 293 cells
[1]
  IC50 of inhibition of VEGF-induced HUVEC cell growth: 5 to 8 ng/mL
[2]
  concentration at which binding was detectable: 1 µg/mL

B5: FP1′ (FLTd2-KDRd3-Fc), chimeric protein of the prior art (Fc fusion, not shown: a dimerising Fc or GST)
chain: PFVEMYSEIPEIIHMTEGRELVIPCRVTSPNITVTLKKFPLDTLIPDGKRIIWDSRKGFIISNATYKEIGLLTCEATVNGHLYKTNYLTHRQTVVLSPSHGIELSVGEKLVLNCTARTELNVGIDFNWEYPSSKHQHKKLVNRDLKTQSGSEMKKFLSTLTIDGVTRSDQGLYTCAASSGLMTKKNSTFVRVHEK
[1]
  IC50 of inhibition of VEGF-induced HUVEC cell growth: ~12 ng/mL
